Laboratory results reported in article doi:10.1101/804138.

Tests used:
[1] = biological target: His6-GapR1-89 (full-length WT GapR), purified (Caulobacter crescentus); test: SEC + cross-linking
[2] = biological target: untagged GapR1-89 (Caulobacter crescentus)
[3] = biological target: His6-GapR1-69 (truncated protein lacking the entire Helix 3) (Caulobacter crescentus); test: SEC + cross-linking
[4] = biological target: His6-GapR1-76 (truncated protein lacking only the hydrophobic patch of Helix 3) (Caulobacter crescentus); test: SEC + cross-linking

“His6-GapR1-89 (full-length WT GapR), purified (natural protein)” was tested, and the stoichiometry N [1] was 4.
For untagged GapR1-89 (natural protein), the stoichiometry N [2] was 4.
For “His6-GapR1-69 (truncated protein lacking the entire Helix 3) (domain or fragment)”, the stoichiometry N [3] was 2.
Work on “His6-GapR1-76 (truncated protein lacking only the hydrophobic patch of Helix 3) (domain or fragment)” yielded a stoichiometry N [4] of 2.
